Patent US11466286B2, “Methods and compositions for conferring and/or enhancing herbicide tolerance using protoporphyrinogen oxidase or variant thereof” (FarmHannong Co., Ltd., priority 2016, dated 2022)

Key:
[1] = tested on: A. thaliana T3 lines with CyPPO10 wild type or mutants (F360M, F360I, F360L, F360C, A167C), CyPPO13 wild type or mutants (F373M, F373C, F373I, A177C …); experiment: Seed germination of A. thaliana transformants on herbicide media; assay type: in vivo, Arabidopsis thaliana; conditions: 25 μM glufosinate, 7 days after sowing
[2] = tested on: PPO-deficient BT3 E. coli (ΔPPO); experiment: Tiafenacil tolerance of BT3 E. coli transformed with CyPPO10, CyPPO13 or AtPPO1 genes (pACBB vector); assay type: cell-based; conditions: tiafenacil 0 μM; PPO function complementation
Experimental: After transforming PPO-deficient BT3 E. coli (ΔPPO) with CyPPO10 or CyPPO13, the transformed BT3 (ΔPPO) was cultured on LB agar plates containing PPO-inhibiting herbicide to examine the growth level of the transformed BT3 (ΔPPO). BT3 (ΔPPO) strain was obtained from Hokkaido University (Japan). The BT3 (ΔPPO) strain is deficient in hemG-type PPO and has kanamycin tolerance (refer to “Watanabe et al., Dual targeting of spinach protoporphyrinogen oxidase II to mitochondria and chloroplasts by alternative use of two in-frame […], JBC 2001 276(23):20474-20481; Che et al., Molecular Characterization and Subcellular Localization of Protoporphyrinogen Oxidase in Spinach Chloroplasts, Plant Physiol. 2000 September; 124(1):59-70”).
The cloned plasmid was added to 100 μl of BT3 competent cell (Hokkaido University; Japan) respectively, thereby transforming by a heat shock method. The transformed E. coli with each PPO gene was cultured in LB (Luria-Bertani) agar media comprising Chloramphenicol (Duchefa).
For seed culture of E. coli transformed with respective genes, each single colony of E. coli transformant as provided above was cultured in 3 ml of LB broth containing chloramphenicol overnight (220 rpm, 37° C.), and 50 to 100 μl were subcultured in a new 3 ml of LB broth, and they were cultured until absorbance (OD600) became 0.5 to 1, and they were diluted with LB broth to absorbance (OD600) of 0.5. The diluted solution was serially diluted again 5 times by a factor of one tenth with LB broth. […] The LB Agar media were incubated at 37° C., under light condition, and level of inhibiting growth was observed after 16 to 20 hours of incubation.
Plant physiol. 2003 133:736-747).

A. thaliana [3] = experiment: Seed germination of A. thaliana transformants on ½ MS media containing herbicides; assay type: in vivo, Arabidopsis thaliana; conditions: T3 lines; 25 μM glufosinate, 25 μM glufosinate+70 nM tiafenacil, or 25 μM glufosinate+30 nM tiafenacil+40 nM saflufenacil; 7 days after sowing
Description: T3 generation seeds of each transformant were sown in ½ MS media containing herbicides. Col-0 ecotype (wild type Arabidopsis) seeds were used as a control. The kinds of herbicides and concentration are as follows:
In FIGS. 31a to 31c, 10-3 refers to CyPPO10 wild type, 10FM-4-7 to the CyPPO10 F360M transgenic line, 10FL-1-9 to the CyPPO10 F360L transgenic line, 10FC-3-5 to the CyPPO10 F360C transgenic line, 10AC-5-4 to the CyPPO10 A167C transgenic line, 13-1 to CyPPO13 wild type, 13FM-3-1 to the CyPPO13 F373M transgenic line, 13FC-1-1 to the CyPPO13 F373C transgenic line, 13FI-2-1 to the CyPPO13 F373I transgenic line, 13AC-1-3 to the CyPPO13 A177C transgenic line, CyPPO13_ALFL to the CyPPO13 A177L+F373L transgenic line, and CyPPO13_ALFI to the CyPPO13 A177L+F373I transgenic line, respectively.

CyPPO13 = experiment: PPO enzyme activity and IC50 by herbicides, CyPPO13 wild type and variants (MBP-PPO fusion); assay type: biochemical, Synechococcus sp. JA-3-3Ab; conditions: PPO enzyme activity of CyPPO13 protein, wild type = 100
How it was run: (§1)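 Activity was read as protoporphyrin IX fluorescence (405/633 nm), calibrated with a protoporphyrin IX standard curve, after 30 min at room temperature with 50 μM substrate under mineral oil. The buffer was 50 mM Tris-Cl pH 8.0 with glucose oxidase/catalase and a 30 min preincubation. Enzymes were purified MBP-PPO fusions of CyPPO10 or CyPPO13, wild type and variants, expressed in E. coli.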

CyPPO10 = experiment: PPO enzyme activity and IC50 by herbicides, CyPPO10 wild type and variants (MBP-PPO fusion); assay type: biochemical, Thermosynechococcus elongatus BP-1; conditions: PPO enzyme activity of CyPPO10 protein, wild type = 100
How it was run: as §1

A. thaliana [4] = experiment: Herbicide spray on A. thaliana transformants, injury level judged at the 7th day; assay type: in vivo, Arabidopsis thaliana; conditions: A. thaliana transformants T2, tiafenacil 25 μM spray

Row | Molecule | Growth of BT3 transformant on medium containing no herbicide [2] | Seed germination in media containing herbicides (A. thaliana [3]) | other results
1 | CP(=O)(O)CCC(N)C(=O)O (stereo not shown) [glufosinate] |  |  | seed germination [1]: germinated
2 | AtPPO1 WT: wild type Arabidopsis thaliana PPO1, PPO susceptible (SEQ ID NO: 5) (protein, listed as Arabidopsis thaliana, PEPTIDE (1)..(537) Wild type AtPPO1) MELSLLRPTTQSLLPSFSKPNLRLNVYKPLRLRCSVAGGPTVGSSKIEGGGGTTITTDCVIVGGGISGLCIAQALATKHPDAAPNLIVTEAKDRVGGNIITREENGFLWEEGPNSFQPSDPMLTMVVDSGLKDDLVLGDPTAPRFVLWNGKLRPVPSKLTDLPFFDLMSIGGKIRAGFGALGIRPSPPGREESVEEFVRRNLGDEVFERLIEPFCSGVYAGDPSKLSMKAAFGKVWKLEQNGGSIIGGTFKAIQERKNAPKAERDPRLPKPQGQTVGSFRKGLRMLPEAISARLGSKVKLSWKLSGITKLESGGYNLTYETPDGLVSVQSKSVVMTVPSHVASGLLRPLSESAANALSKLYYPPVAAVSISYPKEAIRTECLIDGELKGFGQLHPRTQGVETLGTIYSSSLFPNRAPPGRILLLNYIGGSTNTGILSKSEGELVEAVDRDLRKMLIKPNSTDPLKLGVRVWPQAIPQFLVGHFDILDTAKSSLTSSGYEGLFLGGNYVAGVALGRCVEGAYETAIEVNNFMSRYAYK | recovered |  | 
3 | AtPPO1 SLYM: mutated A. thaliana PPO1 with amino acid substitutions Y426M and S305L, PPO-inhibiting herbicide tolerant control (protein, Synthetic Mutant type AtPPO1) MELSLLRPTTQSLLPSFSKPNLRLNVYKPLRLRCSVAGGPTVGSSKIEGGGGTTITTDCVIVGGGISGLCIAQALATKHPDAAPNLIVTEAKDRVGGNIITREENGFLWEEGPNSFQPSDPMLTMVVDSGLKDDLVLGDPTAPRFVLWNGKLRPVPSKLTDLPFFDLMSIGGKIRAGFGALGIRPSPPGREESVEEFVRRNLGDEVFERLIEPFCSGVYAGDPSKLSMKAAFGKVWKLEQNGGSIIGGTFKAIQERKNAPKAERDPRLPKPQGQTVGSFRKGLRMLPEAISARLGSKVKLSWKLLGITKLESGGYNLTYETPDGLVSVQSKSVVMTVPSHVASGLLRPLSESAANALSKLYYPPVAAVSISYPKEAIRTECLIDGELKGFGQLHPRTQGVETLGTIYSSSLFPNRAPPGRILLLNMIGGSTNTGILSKSEGELVEAVDRDLRKMLIKPNSTDPLKLGVRVWPQAIPQFLVGHFDILDTAKSSLTSSGYEGLFLGGNYVAGVALGRCVEGAYETAIEVNNFMSRYAYK | recovered |  | 
4 | CyPPO13 WT: PPO derived from Synechococcus sp. JA-3-3Ab strain, amino acid sequence SEQ ID NO: 4 (protein, Synthetic CyPPO13) MNPATPEPLNAEVVVIGAGISGLTLAWRLQQGLSARGGSPQAVLLAEASSRVGGCISTQSKDGYRWEEGPNSFTPTPALLNLIAEVGLTDQLVLADAKLPRYIYWEGALLPVPLSPAAALGSRLLSVGGKLRALQGLLGFVPPPPGHEETVRQFFRRQLGSEVAERLVEPFTSGVYAGDPDQLSAVAAFPRVAGLEERYGSLFAGALQALRQRPQPSPAAIQPPPKRGQLGNLRQGLQQLPEALAQKLGDSLRLGWRALQLKRAGELYWVGFETPEGSRWVAARQVVLALPAYEAAALLQELNPPASQLLAEILYPPVAVVALAYPQEALPQPLRGFGHLIPRSQGLRTLGTIWASCLFPERAPQGYHSFLSFLGGATDAALARRRGIPPIPALSPEERAQIAHAELSQVLLTRRAEPVYLGERLWPRAIPQYTLGHRQRIAQVQAHLASQTPGIWVCANYLDGVALGDCVRRAEALAQQLLSQV | recovered | germinated | Activity (%) (CyPPO13): 100%
5 | CyPPO13 F373C: CyPPO13 (SEQ ID NO: 4) PPO variant (protein, Synthetic CyPPO13) MNPATPEPLNAEVVVIGAGISGLTLAWRLQQGLSARGGSPQAVLLAEASSRVGGCISTQSKDGYRWEEGPNSFTPTPALLNLIAEVGLTDQLVLADAKLPRYIYWEGALLPVPLSPAAALGSRLLSVGGKLRALQGLLGFVPPPPGHEETVRQFFRRQLGSEVAERLVEPFTSGVYAGDPDQLSAVAAFPRVAGLEERYGSLFAGALQALRQRPQPSPAAIQPPPKRGQLGNLRQGLQQLPEALAQKLGDSLRLGWRALQLKRAGELYWVGFETPEGSRWVAARQVVLALPAYEAAALLQELNPPASQLLAEILYPPVAVVALAYPQEALPQPLRGFGHLIPRSQGLRTLGTIWASCLFPERAPQGYHSFLSCLGGATDAALARRRGIPPIPALSPEERAQIAHAELSQVLLTRRAEPVYLGERLWPRAIPQYTLGHRQRIAQVQAHLASQTPGIWVCANYLDGVALGDCVRRAEALAQQLLSQV |  | germinated | Activity (%) (CyPPO13): 86%
6 | CyPPO10 WT: PPO protein derived from Thermosynechococcus elongatus BP-1, amino acid sequence SEQ ID NO: 2 (protein, Synthetic CyPPO10) MIEVDVAIVGGGLSGLSVAWRLQRSAPHYSGVLLEASDRLGGNITTQAAEGFVWELGPNSFAPTPALLQLIAEVGLHSELIRGDRHLPRYIYWRGELYPLEPTRPLALATSNLLSPWGKVRAALGALGFVPPYLGSGDESVDSFFRRHLGQEVAERLVAPFVSGVYAGDPQQLSAAAAFRRIAQLEKLGGSLIAGALRLRRQQPPQPKPPAQVQMRPGELGSFREGLAALPRAIAQQLKAPLHLQTPVEAITPEPKGGYLLRSGEQTWHARSVVLATPAYQTAELVAPFQPAIARALATIPYPTVACVVLAYPAGLGRSVRPGFGVLVPRGQGIRTLGTIWSSCLFPQRTPAGWQVFTSFIGGATDPDLASLREEAIVEQVQQDLTRLLDLPAAKARLLGMKVWRRAIPQYIVGYPQQWQQVTHALTQTPGLFLCSNYAEGVALGDRVEHGNRTAAAVAAYLAGGQS | recovered | germinated | Activity (%) (CyPPO10): 100%
7 | CyPPO10 A167L + F360M: CyPPO10 (SEQ ID NO: 2) PPO variant (protein, Synthetic CyPPO10) MIEVDVAIVGGGLSGLSVAWRLQRSAPHYSGVLLEASDRLGGNITTQAAEGFVWELGPNSFAPTPALLQLIAEVGLHSELIRGDRHLPRYIYWRGELYPLEPTRPLALATSNLLSPWGKVRAALGALGFVPPYLGSGDESVDSFFRRHLGQEVAERLVAPFVSGVYLGDPQQLSAAAAFRRIAQLEKLGGSLIAGALRLRRQQPPQPKPPAQVQMRPGELGSFREGLAALPRAIAQQLKAPLHLQTPVEAITPEPKGGYLLRSGEQTWHARSVVLATPAYQTAELVAPFQPAIARALATIPYPTVACVVLAYPAGLGRSVRPGFGVLVPRGQGIRTLGTIWSSCLFPQRTPAGWQVFTSMIGGATDPDLASLREEAIVEQVQQDLTRLLDLPAAKARLLGMKVWRRAIPQYIVGYPQQWQQVTHALTQTPGLFLCSNYAEGVALGDRVEHGNRTAAAVAAYLAGGQS |  |  | Activity (%) (CyPPO10): 80%; Average injury index (A. thaliana [4]): 2 (Over 20% and less than 30% of the plant was scorched)
